B1: ADC 125: Thio Hu Anti-CD33 15G15.33 HC A118C-MC-MMED-(CBI dimer phos); linker-CBI intermediate 57 (conjugate)
VH: QVQLVQSGAEVKKPGSSVKVSCKASGGIFSNHAISWVRQAPGQGLEWMGGIIPIFGTANYAQKFQGRVTITADESTSTAFMELSSLRSEDTAVYYCAREWADVFDIWGQGTMVTVSS
VL: EIVLTQSPLSLPVTPGEPASISCRSSQSLLHSNGYNYLDWYLQKPGQSPQLLIYLGVNSVSGVPDRFSGSGSGTDFTLKISRVEAEDVGVYYCMQALQTPWTFGQGTKVEIK
B2: ADC 127: Thio Hu Anti-CD33 15G15.33 HC A118C-MC-ED-(CBI dimer DVB diphos); linker-CBI intermediate 66 (conjugate)
VH: QVQLVQSGAEVKKPGSSVKVSCKASGGIFSNHAISWVRQAPGQGLEWMGGIIPIFGTANYAQKFQGRVTITADESTSTAFMELSSLRSEDTAVYYCAREWADVFDIWGQGTMVTVSS
VL: EIVLTQSPLSLPVTPGEPASISCRSSQSLLHSNGYNYLDWYLQKPGQSPQLLIYLGVNSVSGVPDRFSGSGSGTDFTLKISRVEAEDVGVYYCMQALQTPWTFGQGTKVEIK
B3: ADC 129: Thio Hu Anti-CD33 15G15.33 HC A118C-MC-ED-(CBI dimer DVB phos); linker-CBI intermediate 68 (conjugate)
VH: QVQLVQSGAEVKKPGSSVKVSCKASGGIFSNHAISWVRQAPGQGLEWMGGIIPIFGTANYAQKFQGRVTITADESTSTAFMELSSLRSEDTAVYYCAREWADVFDIWGQGTMVTVSS
VL: EIVLTQSPLSLPVTPGEPASISCRSSQSLLHSNGYNYLDWYLQKPGQSPQLLIYLGVNSVSGVPDRFSGSGSGTDFTLKISRVEAEDVGVYYCMQALQTPWTFGQGTKVEIK

Tested on: EOL-1
Experiment: EOL-1 in vitro cell viability (CellTiter-Glo cell proliferation assay)
Assay type: cell-based, human
Settings: at 3 days versus ADC concentrations (μg/ml)
Excerpt: The CellTiter-Glo® Luminescent Cell Viability Assay is a commercially available (Promega Corp., Madison, Wis.), homogeneous assay method based on the recombinant expression of Coleoptera luciferase (U.S. Pat. Nos. 5,583,024; 5,674,713; 5,700,670). This cell proliferation assay determines the number of viable cells in culture based on quantitation of the ATP present, an indicator of metabolically active cells (Crouch et al (1993) J. Immunol. Meth. 160:81-88; U.S. Pat. No. 6,602,677). The CellTiter-Glo® Assay was conducted in 96 well format, making it amenable to automated high-throughput screening (HTS) (Cree et al (1995) AntiCancer Drugs 6:398-404). The homogeneous assay procedure involves adding the single reagent (CellTiter-Glo® Reagent) directly to cells cultured in serum-supplemented medium. Cell washing, removal of medium and multiple pipetting steps are not required. The system detects as few as 15 cells/well in a 384-well format in 10 minutes after adding reagent and mixing. The cells may be treated continuously with ADC, or they may be treated and separated from ADC.
The homogeneous “add-mix-measure” format results in cell lysis and generation of a luminescent signal proportional to the amount of ATP present. The amount of ATP is directly proportional to the number of cells present in culture. […] Viable cells are reflected in relative luminescence units (RLU). […]
Efficacy of ADC was measured by a cell proliferation assay employing the following protocol ([…] GLO™ Luminescent Cell Viability Assay, Promega Corp. Technical Bulletin TB288; Mendoza et al (2002) Cancer Res. 62:5485-5488): • 1. […] The plate was incubated at room temperature for 10 minutes to stabilize the luminescence signal. • 8. Luminescence was recorded and reported in graphs as RLU=relative luminescence units. • Data are plotted as the mean of luminescence for each set of replicates, with standard deviation error bars. […]

Row | Molecule | cell-killing activity (EOL-1 in vitro cell viability)
1 | B1 | modest dose response cell-killing activity
2 | B2 | potent, dose responsive cell-killing activity
3 | B3 | potent, dose responsive cell-killing activity

Source: patent US10544215B2, “1-(Chloromethyl)-2,3-dihydro-1H-benzo[e]indole dimer antibody-drug conjugate compounds, and methods of use and treatment” (priority 2013, dated 2020)
